Measured values published in patent publication JP2007300927A (dated 2007).
Blank lines part the entries; values can stand above or below the binder they belong to.

Assays:
可溶型GPC3コアタンパク質 [1] = target: T1, 可溶型GPC3コアタンパク質 (human, UniProt P51654 25-563); assay: ELISA screening of hybridoma supernatant on immobilised soluble GPC3 core protein
T1 construct: also called 可溶型GPC3コア蛋白質; soluble GPC3 core protein; not shown: C-terminal His tag

GC-1 = target: T2, GC-1 (human, UniProt P51654 495-563); assay: Western blot of GST fusion proteins, reducing SDS-PAGE
T2 construct: Made in E. coli DH5α, purified on glutathione resin; also called GST融合タンパク質GC-1(Ser495からLys563); not shown: GST (glutathione S-transferase) of vector pGEX-4T-3 (Amersham), N-terminal to the GPC3 piece
T2 sequence: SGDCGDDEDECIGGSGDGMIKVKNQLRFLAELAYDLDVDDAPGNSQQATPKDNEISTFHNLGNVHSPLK

GC-2 = target: T3, GC-2 (human, UniProt P51654 510-563); assay: as above
T3 construct: also called GST融合タンパク質GC-2(Gly510からLys563); not shown: GST (glutathione S-transferase) of vector pGEX-4T-3 (Amersham), N-terminal to the GPC3 piece
T3 sequence: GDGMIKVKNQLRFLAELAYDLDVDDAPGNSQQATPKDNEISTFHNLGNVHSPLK

GC-3 = target: T4, GC-3 (human, UniProt P51654 524-563); assay: as above
T4 construct: also called GST融合タンパク質GC-3(Ala524からLys563); not shown: GST (glutathione S-transferase) of vector pGEX-4T-3 (Amersham), N-terminal to the GPC3 piece
T4 chain: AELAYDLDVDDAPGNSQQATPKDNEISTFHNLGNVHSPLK

可溶型GPC3コアタンパク質 [2] = target: T1, 可溶型GPC3コアタンパク質; assay: ELISA, purified antibody from 10 μg/mL in 3-fold steps on immobilised soluble GPC3 core protein
可溶型GPC3コアタンパク質 [3] = target: T1, 可溶型GPC3コアタンパク質; assay: ELISA on GPC3 (Fig. 15); reference antibody of the comparison

binding result (可溶型GPC3コアタンパク質 [1]): binds
B1: M10D2 (antibody, V domains shown)
VH: QVQLQQPGAELVKPGASVKLSCKASGYTFTSYWMHWVKQRPGQGLEWIGEIDPSDSYTYYNQKFRGKATLTVDKSSNTAYMQLSSLTSEDSAVYYCSRSNLGDGHYRFPAFPYWGQGTLVTVSA
VL: DIVLTQSPATLSVTPGDRVSLSCRASHSISNFLHWYPQKSHESPRLLIKYASQSISGIPSRFSGNGSGTDFTLSINSVETEDFGMYFCQQSNIWSLTFGAGTKLELK
notes: Mouse hybridoma antibody

binding result (GC-1): binds
binding result (GC-2): binds
binding result (GC-3): binds
binding result (可溶型GPC3コアタンパク質 [2]): binds
B2: M11F1 (antibody, V domains shown)
VH: QVTLKESGPGILQPSQTLSLTCSFSGFSLSIYGMGVGWIRQPSGKGLEWLANIWWNDDKYYNSALKSRLTISKDTSNNQVFLKISSVDTADTATYYCAQIGYFYFDYWGQGTTLTVSS
VL: DVVMTQTPLSLPVSLGDQASISCRSSQSLVHSNGNTYLHWYLQKPGQSPKLLIYKVSNRFSGVPDRFSGSGSGTDFTLKISRVEAEDLGVYFCSQSTHVPWTFGGGTKLEIK
notes: Mouse hybridoma antibody

binding result (可溶型GPC3コアタンパク質 [3]): binds
B3: GC33マウス−ヒトキメラ抗体 (antibody, V domains shown)
VH: QVQLQQSGAELVRPGASVKLSCKASGYTFTDYEMHWVKQTPVHGLKWIGALDPKTGDTAYSQKFKGKATLTADKSSSTAYMELRSLTSEDSAVYYCTRFYSYTYWGQGTLVTVSA
VL: DVVMTQTPLSLPVSLGDQASISCRSSQSLVHSNGNTYLHWYLQKPGQSPKLLIYKVSNRFSGVPDRFSGSGSGTDFTLKISRVEAEDLGVYFCSQNTHVPPTFGSGTKLEIK
notes: Mouse GC33 variable regions on human IgG1 and human κ constant regions (vectors HEFgγ1, HEFgκ); also called キメラGC33抗体; マウスGC33可変領域の抗体(mouse / mouse)
